Source: patent US9340579B2, “DPP-4 inhibitor” (NIPPI, INCORPORATED, priority 2011, dated 2016)
Blank lines part the entries; values can stand above or below the binder they belong to. Square brackets hold non-standard residues; d marks the D form. Ends that are not written are not given here. Hyp = O=C(O)[C@@H]1C[C@@H](O)CN1

Target: DPP-4 (manufactured by Sigma, derived from porcine kidney) (porcine, UniProt P22411 38-766, limits assumed)
Assay: cell-based or functional assay

DPP-4 (manufactured by Sigma, derived from porcine kidney), sequence (P22411 38-766 limits assumed): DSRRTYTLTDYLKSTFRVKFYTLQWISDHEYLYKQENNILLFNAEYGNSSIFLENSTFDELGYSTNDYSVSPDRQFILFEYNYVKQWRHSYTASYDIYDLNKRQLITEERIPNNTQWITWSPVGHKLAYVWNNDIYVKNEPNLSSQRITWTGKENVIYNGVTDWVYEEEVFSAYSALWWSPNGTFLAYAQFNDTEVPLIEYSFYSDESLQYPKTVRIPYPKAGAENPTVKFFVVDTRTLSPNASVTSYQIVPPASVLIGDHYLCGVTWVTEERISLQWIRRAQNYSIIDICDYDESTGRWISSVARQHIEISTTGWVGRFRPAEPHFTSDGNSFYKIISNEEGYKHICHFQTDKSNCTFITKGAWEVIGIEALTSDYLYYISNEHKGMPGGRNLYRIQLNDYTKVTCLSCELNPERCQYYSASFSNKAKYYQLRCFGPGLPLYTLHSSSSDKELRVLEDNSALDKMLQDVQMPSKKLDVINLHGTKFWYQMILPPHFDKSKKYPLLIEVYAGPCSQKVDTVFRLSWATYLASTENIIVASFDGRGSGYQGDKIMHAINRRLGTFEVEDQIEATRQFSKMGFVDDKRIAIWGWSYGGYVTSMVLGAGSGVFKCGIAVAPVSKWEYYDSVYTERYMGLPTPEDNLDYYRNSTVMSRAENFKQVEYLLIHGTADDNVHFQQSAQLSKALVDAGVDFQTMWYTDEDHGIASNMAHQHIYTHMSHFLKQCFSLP

B1: Leu-Hyp-Gly-Pro-Ala (peptide)
peptide: L[Hyp]GPA
IC50 value: 830 µM
Inhibition rate (%) at 0.35 mg/ml time: 52.1%

B4: Hyp-Gly (peptide)
peptide: [Hyp]-Gly
Inhibition rate (%) at 0.35 mg/ml time: 0%

B5: Ile-Hyp-Gly (peptide)
peptide: Ile-[Hyp]-Gly
IC50 value: 500 µM
Inhibition rate (%) at 0.35 mg/ml time: 71%

B6: Ala-Hyp-Gly (peptide)
peptide: Ala-[Hyp]-Gly
IC50 value: 9450 µM
Inhibition rate (%) at 0.35 mg/ml time: 14.6%

B7: Pro-Hyp-Gly (peptide)
peptide: Pro-[Hyp]-Gly
IC50 value: 4640 µM
Inhibition rate (%) at 0.35 mg/ml time: 27.2%

Second part, the binder after the results:

Inhibition rate (%) at 0.35 mg/ml time: 0%
B2: Pro-Hyp (peptide)
peptide: Pro-[Hyp]

Inhibition rate (%) at 0.35 mg/ml time: 0%
B3: Ala-Hyp (peptide)
peptide: Ala-[Hyp]

Inhibition rate (%) at 0.35 mg/ml time: 0%
B8: Phe-Hyp (peptide)
peptide: Phe-[Hyp]
